Consider one molecule from patent publication US20210095002A1 (Hoffmann-La Roche, published 2021).

Test [1] has as its target T1, murine FAP (mouse, UniProt P97321 27-761).
T1 construct: also called mouse FAP
As to the kind of experiment: SPR simultaneous binding, figure legend (FIG. 2C). As to the method:
The capacity of binding simultaneously murine 4-1BB Fc(kih) and murine FAP was assessed by surface plasmon resonance (SPR) in the manner as described in WO 2016/075278 A1. All SPR experiments were performed on a Biacore T200 at 25° C. with HBS-EP as running buffer (0.01 M HEPES pH 7.4, 0.15 M NaCl, 3 mM EDTA, 0.005% Surfactant P20, Biacore, Freiburg/Germany). Biotinylated murine 4-1BB Fc(kih) was directly coupled to a flow cell of a streptavidin (SA) sensor chip. Immobilization levels up to 600 resonance units (RU) were used.
The FAP-targeted 4-1BB constructs were passed at a concentration range of 200 nM with a flow of 30 μL/minute through the flow cells over 90 seconds and dissociation was set to zero sec. Murine FAP was injected as second analyte with a flow of 30 μL/minute through the flow cells over 90 seconds at a concentration of 500 nM. The dissociation was monitored for 120 sec. Bulk refractive index differences were corrected for by subtracting the response obtained in a reference flow cell, where no protein was immobilized.

Test [2] has as its target T2, biotinylated murine 4-1BB Fc(kih) (murine, UniProt P20334 24-187, biotinylated).
T2 construct: also called immobilized murine 4-1BB
T2 sequence: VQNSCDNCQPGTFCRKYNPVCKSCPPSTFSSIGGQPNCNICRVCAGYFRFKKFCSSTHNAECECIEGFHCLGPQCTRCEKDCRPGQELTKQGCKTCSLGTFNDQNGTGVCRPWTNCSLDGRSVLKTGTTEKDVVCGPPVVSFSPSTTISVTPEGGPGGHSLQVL
As to the kind of experiment: SPR (Biacore T200, 25 C): biotinylated murine 4-1BB Fc(kih) on SA chip, construct at 200 nM as first analyte, murine FAP at 500 nM as second analyte. A general note: In SPR one partner is held on a chip, and binding of the other changes the refractive index at the surface.

T1 sequence (P97321 27-761 limits assumed): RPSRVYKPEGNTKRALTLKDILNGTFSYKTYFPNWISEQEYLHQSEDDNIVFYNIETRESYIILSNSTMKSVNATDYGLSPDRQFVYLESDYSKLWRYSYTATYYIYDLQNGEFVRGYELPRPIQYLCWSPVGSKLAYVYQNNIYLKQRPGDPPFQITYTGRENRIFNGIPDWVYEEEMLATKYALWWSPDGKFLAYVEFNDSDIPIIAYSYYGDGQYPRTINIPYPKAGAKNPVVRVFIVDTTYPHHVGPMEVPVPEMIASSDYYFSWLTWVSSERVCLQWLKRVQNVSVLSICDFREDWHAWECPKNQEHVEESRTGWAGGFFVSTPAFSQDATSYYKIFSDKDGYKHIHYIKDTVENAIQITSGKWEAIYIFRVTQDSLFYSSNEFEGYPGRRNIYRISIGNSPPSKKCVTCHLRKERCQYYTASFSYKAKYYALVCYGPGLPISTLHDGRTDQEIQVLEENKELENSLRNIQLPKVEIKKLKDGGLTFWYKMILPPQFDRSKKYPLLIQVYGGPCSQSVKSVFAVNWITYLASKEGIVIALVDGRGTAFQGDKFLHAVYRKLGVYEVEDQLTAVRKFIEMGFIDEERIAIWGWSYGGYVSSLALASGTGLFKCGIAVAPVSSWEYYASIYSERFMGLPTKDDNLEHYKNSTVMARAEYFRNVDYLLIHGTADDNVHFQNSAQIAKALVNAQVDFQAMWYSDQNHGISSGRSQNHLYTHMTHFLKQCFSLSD

B1: 4-1BB (MU137-1)/FAP(28H1) DAPG IgG1 2+1 (Fc-DD-VL), named muFAP-4-1BB (bispecific antibody)
heavy 1: DVQLVESGGGLVQPGRSLKLSCAASGFIFSYFDMAWVRQAPTKGLEWVASISPSGDIPYYRDSVKGRFTVSRENAKSSLYLQMDSLRSEDTATYYCARRSYGGYSELDYWGQGVMVTVSSAKTTPPSVYPLAPGSAAQTNSMVTLGCLVKGYFPEPVTVTWNSGSLSSGVHTFPAVLQSDLYTLSSSVTVPSSTWPSQTVTCNVAHPASSTKVDKKIVPRDCGCKPCICTVPEVSSVFIFPPKPKDVLTITLTPKVTCVVVAISKDDPEVQFSWFVDDVEVHTAQTKPREEQINSTFRSVSELPIMHQDWLNGKEFKCRVNSAAFGAPIEKTISKTKGRPKAPQVYTIPPPKEQMAKDKVSLTCMITNFFPEDITVEWQWNGQPAENYDNTQPIMDTDGSYFVYSDLNVQKSNWEAGNTFTCSVLHEGLHNHHTEKSLSHSPGGGGGSGGGGSGGGGSGGGGSEIVLTQSPGTLSLSPGERATLSCRASQSVSRSYLAWYQQKPGQAPRLLIIGASTRATGIPDRFSGSGSGTDFTLTISRLEPEDFAVYYCQQGQVIPPTFGQGTKVEIK
heavy 2: DVQLVESGGGLVQPGRSLKLSCAASGFIFSYFDMAWVRQAPTKGLEWVASISPSGDIPYYRDSVKGRFTVSRENAKSSLYLQMDSLRSEDTATYYCARRSYGGYSELDYWGQGVMVTVSSAKTTPPSVYPLAPGSAAQTNSMVTLGCLVKGYFPEPVTVTWNSGSLSSGVHTFPAVLQSDLYTLSSSVTVPSSTWPSQTVTCNVAHPASSTKVDKKIVPRDCGCKPCICTVPEVSSVFIFPPKPKDVLTITLTPKVTCVVVAISKDDPEVQFSWFVDDVEVHTAQTKPREEQINSTFRSVSELPIMHQDWLNGKEFKCRVNSAAFGAPIEKTISKTKGRPKAPQVYTIPPPKKQMAKDKVSLTCMITNFFPEDITVEWQWNGQPAENYKNTQPIMKTDGSYFVYSKLNVQKSNWEAGNTFTCSVLHEGLHNHHTEKSLSHSPGGGGGSGGGGSGGGGSGGGGSEVQLLESGGGLVQPGGSLRLSCAASGFTFSSHAMSWVRQAPGKGLEWVSAIWASGEQYYADSVKGRFTISRDNSKNTLYLQMNSLRAEDTAVYYCAKGWLGNFDYWGQGTLVTVSS
light: DIQMTQSPASLSASLEEIVTITCQASQDIGNWLAWYHQKPGKSPQLLIYGTSSLADGVPSRFSGSSSGSQYSLKISRLQVEDIGIYYCLQAYGAPWTFGGGTKLELKRADAAPTVSIFPPSSEQLTSGGASVVCFLNNFYPKDINVKWKIDGSERQNGVLNSWTDQDSKDSTYSMSSTLTLTKDEYERHNSYTCEATHKTSTSPIVKSFNRNEC
notes: Mouse IgG1 DAPG (D265A, P329G) with DDKK heterodimerisation; It has two anti-mouse-4-1BB Fabs (MU137-1) and one anti-FAP (28H1) VH/VL fused to the Fc C-termini; also called mouse surrogate muFAP-4-1BB; murine bispecific FAP-4-1BB antibody
B1: the binding result in test [1] and in test [2] was “binds” in each case.
